Target: T1, biotinylated CD59 (Homo sapiens, UniProt P13987)
T1 construct: Recombinant soluble human CD59 with an additional C-terminal cysteine residue
T1 sequence (P13987 26-102 limits assumed): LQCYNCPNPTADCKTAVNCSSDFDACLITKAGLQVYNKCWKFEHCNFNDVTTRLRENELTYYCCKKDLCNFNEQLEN
Assay: mRNA-display cyclic peptide screen against CD59-biotin, NGS abundance after 6th selection round
Conditions: for Percentage Seq I: counts normalised by total counts of sample Seq I; for Percentage Seq I / Percentage Seq II: percentage of the pool; for Percentage Seq I / Percentage Seq II / Percentage Average / Percentage of the pool, averaged across the two sequencing samples / Percentage of the pool, Seq I / Percentage of the pool, Seq II: sheet R6; for Percentage Seq II: counts normalised by total counts of sample Seq II; for Percentage Average: percentage of the pool averaged across the two sequencing samples; for Counts Seq I / Counts Seq II: raw NGS counts of peptide sequence; for Counts Seq I: sequencing sample Seq I; for Counts Seq I / Counts Seq II / Counts (raw counts for peptide sequence), Seq I / Counts (raw counts for peptide sequence), Seq II: sheet R6 (6th selection round); for Counts Seq II: sequencing sample Seq II; for Counts (raw counts for peptide sequence), Seq I: NGS sample Seq I; for Counts (raw counts for peptide sequence), Seq II: NGS sample Seq II; for Percentage of the pool, averaged across the two sequencing samples: average of Seq I and Seq II; for Percentage of the pool, Seq I: counts normalised by total counts of NGS sample Seq I; for Percentage of the pool, Seq II: counts normalised by total counts of NGS sample Seq II
In short: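 Peptide–mRNA fusions were made by in vitro translation with a customised PURE express kit. The kit lacked release factor 1 and methionine and was supplemented with […] initiator tRNA carrying N-chloroacetyl-d-tyrosine. Thioether macrocycles were formed, then enriched and amplified over iterative rounds on CD59-biotin immobilised on streptavidin beads. NGS read counts per sequence were recorded after the 6th selection round.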

Sequence | Percentage Seq I [%] | Percentage Seq II [%] | Percentage Average [%] | Counts Seq I | Counts Seq II | Counts (raw counts for peptide sequence), Seq I | Counts (raw counts for peptide sequence), Seq II | Percentage of the pool, averaged across the two sequencing samples [%] | Percentage of the pool, Seq I [%] | Percentage of the pool, Seq II [%]
STWGNRNETRG | 0.029 | 0.026 | 0.028 | 129 | 11 |  |  |  |  | 
CFSWRLGPAEK | 0.020 | 0.028 | 0.024 | 87 | 12 |  |  |  |  | 
SAWGNRQIQYF | 0.023 | 0.030 | 0.027 | 102 | 13 |  |  |  |  | 
WRDRFDQCVR | 0.039 | 0.053 | 0.046 | 169 | 23 |  |  |  |  | 
GRRNECLSRTS |  |  |  |  |  | 68 | 3 | 0.011 | 0.016 | 0.007
RCWASGSRDWR |  |  |  |  |  | 95 | 6 | 0.018 | 0.022 | 0.014
SWTWGNRSSVRG | 2.910 | 2.799 | 2.855 | 12733 | 1206 |  |  |  |  | 
VASGGRYWSRA | 0.103 | 0.139 | 0.121 | 449 | 60 |  |  |  |  | 
HVFGNRSFTSG | 0.017 | 0.021 | 0.019 | 73 | 9 |  |  |  |  | 
CEALLRRGWD | 0.094 | 0.079 | 0.087 | 413 | 34 |  |  |  |  | 
CFTGRLSLDSI | 0.031 | 0.039 | 0.035 | 134 | 17 |  |  |  |  | 
CAWGNRHTAYY | 0.018 | 0.030 | 0.024 | 80 | 13 |  |  |  |  | 
FIRGNSTSVLF | 1.617 | 1.838 | 1.728 | 7076 | 792 |  |  |  |  | 
FVRGDLNSVLG |  |  |  |  |  | 69 | 5 | 0.014 | 0.016 | 0.012
STKNDYNNVPC | 0.012 | 0.026 | 0.019 | 54 | 11 |  |  |  |  | 
HVFGNRPFTRG |  |  |  |  |  | 73 | 5 | 0.014 | 0.017 | 0.012
WATGSATFSSG | 0.730 | 0.673 | 0.702 | 3196 | 290 |  |  |  |  | 
CSRLTSRGWT |  |  |  |  |  | 62 | 5 | 0.013 | 0.014 | 0.012

Sequence | Percentage Seq I [%] | Percentage Seq II [%] | Percentage Average [%] | Counts Seq I | Counts Seq II | Counts (raw counts for peptide sequence), Seq I | Counts (raw counts for peptide sequence), Seq II | Percentage of the pool, averaged across the two sequencing samples [%] | Percentage of the pool, Seq I [%] | Percentage of the pool, Seq II [%]
HAFGNRSFTRG |  |  |  |  |  | 82 | 5 | 0.015 | 0.019 | 0.012
RVGSQFCAQL |  |  |  |  |  | 33 | 9 | 0.014 | 0.00754 | 0.021
CYGNSHASWG | 0.483 | 0.469 | 0.476 | 2115 | 202 |  |  |  |  | 
EARGTKSFAYY | 0.124 | 0.100 | 0.112 | 544 | 43 |  |  |  |  | 
HVFGNRSSTRG |  |  |  |  |  | 69 | 6 | 0.015 | 0.016 | 0.014
STRRDRLGLIC | 1.051 | 1.033 | 1.042 | 4600 | 445 |  |  |  |  | 
VARGSKDWRWS |  |  |  |  |  | 41 | 6 | 0.012 | 0.009 | 0.014
CFQNRVSGSGAL | 0.119 | 0.116 | 0.118 | 522 | 50 |  |  |  |  | 
CFSHRSNSDGI | 0.092 | 0.081 | 0.087 | 404 | 35 |  |  |  |  | 
CFAGRLTVDAV | 0.037 | 0.030 | 0.034 | 163 | 13 |  |  |  |  | 
HVLGNRSFTRG | 0.071 | 0.084 | 0.077 | 312 | 36 |  |  |  |  | 
FARGDWNHQFY |  |  |  |  |  | 120 | 3 | 0.017 | 0.027 | 0.007
YAQGDKLTARG | 0.028 | 0.026 | 0.027 | 124 | 11 |  |  |  |  | 
CFARRLSASFGT | 1.002 | 0.935 | 0.969 | 4384 | 403 |  |  |  |  | 
YLSGSSNFTRG | 0.042 | 0.044 | 0.043 | 184 | 19 |  |  |  |  | 
HVFGNRSFARG |  |  |  |  |  | 78 | 6 | 0.016 | 0.018 | 0.014
CYGGRTFIHAWS | 0.054 | 0.049 | 0.051 | 237 | 21 |  |  |  |  | 

Source: PMC12207370, “Macrocyclic Peptide Probes for Immunomodulatory Protein CD59: Potent Modulators of Bacterial Toxin Activity and Antibody‐Dependent Cytotoxicity” (Angewandte Chemie (International Ed. in English), 2025)
